Reference: patent US20170129940A1 (INSTITUTE FOR RESEARCH IN BIOMEDICINE, published 2017)

Key:
[1] = molecular target: T1, hCMV gM + gN (co-expressed in HEK293T cells) (human cytomegalovirus, UniProt P16733 1-372; P16795 22-138); assay: cell-based or functional assay
T1 sequence 1: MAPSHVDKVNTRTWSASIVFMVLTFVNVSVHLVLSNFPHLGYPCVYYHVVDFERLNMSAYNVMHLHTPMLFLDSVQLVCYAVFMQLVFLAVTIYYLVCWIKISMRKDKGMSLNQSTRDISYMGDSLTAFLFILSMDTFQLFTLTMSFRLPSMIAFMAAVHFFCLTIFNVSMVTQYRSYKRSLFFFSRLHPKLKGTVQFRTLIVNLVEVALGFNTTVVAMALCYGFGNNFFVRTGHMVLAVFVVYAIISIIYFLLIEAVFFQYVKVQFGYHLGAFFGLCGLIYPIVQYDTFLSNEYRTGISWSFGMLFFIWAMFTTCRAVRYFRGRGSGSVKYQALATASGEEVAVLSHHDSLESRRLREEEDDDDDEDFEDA
T1 sequence 2: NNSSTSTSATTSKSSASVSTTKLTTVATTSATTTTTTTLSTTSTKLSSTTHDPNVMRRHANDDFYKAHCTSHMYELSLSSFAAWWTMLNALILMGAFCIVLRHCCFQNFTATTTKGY

[2] = molecular target: T1, hCMV gM + gN (co-expressed in HEK293T …); assay: cell-based or functional assay; remark: listed apart in the source

B1: 6L3 (antibody, V domains shown)
VH: EVRLEESGGGLVQPGGSLRLSCAASGFTVSTTYMAWVRQAPGKGLEWVSLIHTGGIFGVGGTSYADSVKGRFTISRDTSKNTVSLQMSSLRVEDTAIYFCAREHRGTIDAFDAWGQGTVVIVSS
VL: DIHMTQSPSSLSASVGDRVTITCRASQNIRNYLNWYQHKPGKAPKLLIYTTSRLQSGVPSRFSGSGSGTDFTLTVNSLQPEDFASYYCQQSYDGWTFGQGTKVEMK
50% Neutralization ARPE [1]: ≤ 2 µg/mL
90% Neutralization ARPE [2]: 10 µg/mL
90% Neutralization MRC-9 [2]: 30 µg/mL
